Measured values reported in the supplement of paper PMC7125110.
± gives the standard error. Fewer inactive variants are shown than the library holds.

B1: glmS ribozyme (parent)
chain: AUAAAAGCGCCAGAACUACAGAAAUGUAGUUGACGAGGAGGAGGUUUAUCGAAUUUUCGGCGGAUGCCUCCAAA

How the values were obtained:
Conditions in all cases: with glucosamine-6-phosphate
glucosamine-6-phosphate [1] = variants of: B1; assay: self-cleavage kobs at 160 uM GlcN6P; higher = faster cleavage; RNA array
How it was run: (§1)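 Over ~14 h at 37 °C, tiles were imaged as glucosamine-6-phosphate (40 μM to 10 mM) in HEPES/KCl/Mg(OAc)2 buffer flowed across sequenced MiSeq chips. The chips carried barcoded ribozyme variants transcribed in situ by E. coli RNA polymerase and tracked with a hybridised Cy3 probe. After normalisation to baseline and to non-cleaving reference variants, one- or two-exponential decay fits of per-tile medians gave kobs. kcat and KM followed from weighted Michaelis–Menten fits across concentrations.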

glucosamine-6-phosphate [2] = variants of: B1; assay: self-cleavage kobs at 640 uM GlcN6P; higher = faster cleavage; RNA array
How it was run: as §1

glucosamine-6-phosphate [3] = variants of: B1; assay: self-cleavage kobs at 2500 uM GlcN6P; higher = faster cleavage; RNA array
How it was run: as §1

glucosamine-6-phosphate [4] = variants of: B1; assay: self-cleavage kobs at 10000 uM GlcN6P; higher = faster cleavage; RNA array
How it was run: as §1

| Variant | self-cleavage kobs at 160 uM GlcN6P (glucosamine-6-phosphate [1]) | self-cleavage kobs at 640 uM GlcN6P (glucosamine-6-phosphate [2]) | self-cleavage kobs at 2500 uM GlcN6P (glucosamine-6-phosphate [3]) | self-cleavage kobs at 10000 uM GlcN6P (glucosamine-6-phosphate [4]) |
| --- | --- | --- | --- | --- |
| C8G G51C C68G | < 1e-05 s⁻¹ | < 1e-05 s⁻¹ | – | – |
| C34U C70U | < 1e-05 s⁻¹ | < 1e-05 s⁻¹ | – | – |
| C16G G44C C68U | < 1e-05 s⁻¹ | – | < 1e-05 s⁻¹ | – |
| C34A U47C A48C | < 1e-05 s⁻¹ | – | – | – |
| U54G A64G C68A | 5.71e-05 ± 2.2e-05 s⁻¹ | 6.86e-05 ± 1.5e-05 s⁻¹ | 0.000107 ± 2.7e-05 s⁻¹ | – |
| U30G A36U | < 1e-05 s⁻¹ | < 1e-05 s⁻¹ | – | – |
| C8A C61U A64C C67U | < 1e-05 s⁻¹ | < 1e-05 s⁻¹ | < 1e-05 s⁻¹ | – |
| U54C U55A | 0.00144 ± 0.00036 s⁻¹ | 0.00609 ± 0.0028 s⁻¹ | 0.00974 ± 0.0036 s⁻¹ | – |
| A39U U47G A52U G60U G63U | < 1e-05 s⁻¹ | – | – | – |
| C8G C16U G35U C50G C70U | 0.000117 ± 2.9e-05 s⁻¹ | 0.000187 ± 5e-05 s⁻¹ | 8.04e-05 ± 1.8e-05 s⁻¹ | – |
| G29U G38C A39U C50A | < 1e-05 s⁻¹ | < 1e-05 s⁻¹ | – | – |
| C8A G9U G32A G51A | < 1e-05 s⁻¹ | – | – | – |
| G7A G62C C67G | < 1e-05 s⁻¹ | < 1e-05 s⁻¹ | < 1e-05 s⁻¹ | – |
| A15C G38C C70G | < 1e-05 s⁻¹ | – | – | – |
| A12U C50G C70G | 0.000311 ± 7.3e-05 s⁻¹ | 0.000429 ± 8.2e-05 s⁻¹ | 0.000205 ± 7.3e-05 s⁻¹ | 0.000273 ± 6e-05 s⁻¹ |
| A53G G63U | < 1e-05 s⁻¹ | < 1e-05 s⁻¹ | < 1e-05 s⁻¹ | – |
| C11A G29A C34A U57C | < 1e-05 s⁻¹ | < 1e-05 s⁻¹ | – | – |
| C8A U57C | < 1e-05 s⁻¹ | < 1e-05 s⁻¹ | < 1e-05 s⁻¹ | – |
| C8U G32C G43C C70G | < 1e-05 s⁻¹ | – | – | – |
| C34G A53G C68G | 0.000101 ± 2.4e-05 s⁻¹ | 0.000115 ± 2.5e-05 s⁻¹ | 8.44e-05 ± 3.6e-05 s⁻¹ | – |
| A53C U54G | 0.000308 ± 0.00011 s⁻¹ | 0.000352 ± 0.00012 s⁻¹ | 0.000803 ± 0.00021 s⁻¹ | – |
| G38U A39G G41C A42U U57C | < 1e-05 s⁻¹ | – | – | – |
| U31G G35A | < 1e-05 s⁻¹ | < 1e-05 s⁻¹ | – | < 1e-05 s⁻¹ |
| G7U A33C C67A C68U | < 1e-05 s⁻¹ | – | < 1e-05 s⁻¹ | – |
| U30C C50U C70G | 5.6e-05 ± 1.7e-05 s⁻¹ | 0.000134 ± 3.3e-05 s⁻¹ | 0.000173 ± 3.3e-05 s⁻¹ | – |
| U30A G32A A39G | 6.92e-05 ± 2.4e-05 s⁻¹ | 0.000602 ± 0.00013 s⁻¹ | 0.000618 ± 0.0002 s⁻¹ | 0.00306 ± 0.00073 s⁻¹ |
